Assay results from US20040053235A1 (published 2004).

Molecular target: the molecule itself
Assay: size exclusion chromatography on Superdex 200: activity peaks at 42.4 and 87.5 kD, each a single 42.2 kD polypeptide on SDS-PAGE (self-association)
Description: Further purification of the enzyme activity was carried out by Ni2+ affinity chromatography (which binds the poly-histidine tag of the recombinant protein) and size exclusion chromatography. Nickel affinity chromatography was carried out by passing an E. coli extract, prepared as described above, through a column containing NTA-agarose (Novagen “His-Bind Resin”). 5 ml of the resin were washed with 30 ml H₂O, charged with 30 ml NiSO₄ washed with 30 ml H₂O and equilibrated with 30 ml 50 mM Na-phosphate pH 8, 300 mM NaCl. The E. coli pellet was suspended in 50 mM Na-phosphate pH 8, 300 mM NaCl and sonicated. The suspension was centrifuged again (9000 g, 20 min). The supernatant was stirred with the Ni-resin on ice for 1 hour. The suspension was transferred into a column. After settling down the column was washed with 250 ml 50 mM Na-phosphate pH 6 containing 300 mM NaCl an d 10% glycerol. Ni-bound protein was eluted with 500 mM imidazole/50 mM Na-phosphate at pH 6 containing 300 mM NaCl. Fractions were collected and assayed for L-galactose dehydrogenase activity. […] This sample was then subjected to size exclusion chromatography on a Superdex 200 column (Amersham-Pharmacia Biotech) using 25 mM tris-HCl buffer pH 7 containing 150 mM NaCl as eluent Fractions (1 ml) were collected and two peaks of activity corresponding to molecular weights of 42.4 and 87.5 kD were detected. […]

B1: recombinant Arabidopsis thaliana L-galactose dehydrogenase (expressed in E. coli from pRSETB-LgalDH, with poly-histidine tag) (enzyme)
chain: MTKIELRALGNTGLKVSAVGFGASPLGSVFGPVAEDDAVATVREAFRLGINFFDTSPYYGGTLSEKMLGKGLKALQVPRSDYIVATKCGRYKEGFDFSAERVRKSIDESLERLQLDYVDILHCHDIEFGSLDQIVSETIPALQKLKQEGKTRFIGITGLPLDIFTYVLDRVPPGTVDVILSYCHYGVNDSTLLDLLPYLKSKGVGVISASPLAMGLLTEQGPPEWHPASPELKSASKAAVAHCKSKGKKITKLALQYSLANKEISSVLVGMSSVSQVEENVAAVTELESLGMDQETLSEVEAILEPVKNLTWPSGIHQN
notes: The entry describes one subunit; also called recombinant L-galDH; not shown: poly-histidine tag and vector-encoded residues from pRSETB
- binding result: binds
